Results on 1 molecule are retold here after article PMC2812517 (The Journal of Cell Biology, 2010).

This assay deals with GST-LC3B (UniProt Q9GZQ8 1-120). Nature of the assay: pull-down.

B1: MBP-FYCO1(863–1,478) (domain or fragment)
chain: AQQREEELRALQEELSQAKCSSEEAQLEHAELQEQLHRANTDTAELGIQVCALTVEKERVEEALACAVQELQDAKEAASREREGLERQVAGLQQEKESLQEKLKAAKAAAGSLPGLQAQLAQAEQRAQSLQEAAHQELNTLKFQLSAEIMDYQSRLKNAGEECKSLRGQLEEQGRQLQAAEEAVEKLKATQADMGEKLSCTSNHLAECQAAMLRKDKEGAALREDLERTQKELEKATTKIQEYYNKLCQEVTNRERNDQKMLADLDDLNRTKKYLEERLIELLRDKDALWQKSDALEFQQKLSAEERWLGDTEANHCLDCKREFSWMVRRHHCRICGRIFCYYCCNNYVLSKHGGKKERCCRACFQKLSEGPGSPDSSGSGTSQGEPSPALSPASPGPQATGGQGANTDYRPPDDAVFDIITDEELCQIQESGSSLPETPTETDSLDPNAAEQDTTSTSLTPEDTEDMPVGQDSEICLLKSGELMIKVPLTVDEIASFGEGSRELFVRSSTYSLIPITVAEAGLTISWVFSSDPKSISFSVVFQEAEDTPLDQCKVLIPTTRCNSHKENIQGQLKVRTPGIYMLIFDNTFSRFVSKKVFYHLTVDRPVIYDGSDFL
As for B1, the binding result is “binds”.
